Where a chain is given by its changes, count along the chain named. In names and notes the source's numbering stands.
Tested on: 3-methylcrotonic acid
Assay type: biochemical, Yersinia frederiksenii
Design: key: “+” representing a low increase in activity; “++++” representing a high increase in activity

B1: I283T-N285P-N287T-Q290E-S322T-N388M-K394R-i424aL-C430A-L432F-L434W-S436N-dG462 (protein)
chain: MFLKSLREQINLLKRQGDLRIINRPVDSYLEAAAIIRRSTETKAPVPLMTNIKGYPGCSIVGGLAALSSNPEYPLSRVAMSLGLSTTASAQSIVQYLIDGLKKTPYLPVEIDSNSAPCKQNILRGEDASLAHFPIPQVHQHDGNRYVNTWGVFIVESPDGQWCNWSIQRVQYLNDRQMIALVFPSQHISDIWEEWVKIGKPMPYALVQGCEPIVPYIAGLPLLERNVNEAEYIGALYGKGIEVVKCETHDLRVPASSEVVIEGYFAITREGVEGPFGEFAGYTPPETSLEPILSITAISWQDDPIWPVVAEGKPVDEYHTCTGIGDAAAIQNVLLTANLPVSFVWVPLYSACHLMIVSINRHWRQTHPDLTSEQLTKKVGDVIHQTRMSIKLPRIVVLDDDVDPADTESLLWALATRIHPERKRYFYESAIFPWLNCYSEEERHNRKGKRVIIDALLPENHGAISSFDYAYPDDIKQRVLMHWETDFSHD
In the case of B1, the “Activity relative to WT” value is reported as “++++”.

B2: I283T-N285P-N287T-Q290E-S322T-N388M-K394R-C430A-i430aN-L432F-L434W-S436N-dG462 (protein)
chain: B1 chain
In the case of B2, the “Activity relative to WT” value is reported as “++++”.

B3: I283T-N285P-N287T-Q290E-S322T-N388M-K394R-i424aS-C430A-L432F-L434W-S436N-dG462 (protein)
chain: B1 chain
With B3 the “Activity relative to WT” value was “++++”.

B4: I283T-N285P-N287T-Q290E-S322T-N388M-K394R-C430A-i430aL-L432F-L434W-S436N-dG462 (protein)
chain: B1 chain
B4 was tested, and the “Activity relative to WT” value was “++++”.

B5: I283T-N285P-N287T-Q290E-S322T-N388M-K394R-C430A-i430aS-L432F-L434W-S436N-dG462 (protein)
chain: B1 chain
In the case of B5, the “Activity relative to WT” value is reported as “++++”.

B6: I283T-N285P-N287T-Q290E-S322T-N388M-K394R-i424aD-C430A-L432F-L434W-S436N-dG462 (protein)
chain: B1 chain
B6 was tested, and the “Activity relative to WT” value was “++++”.

B7: I283T-N285P-N287T-Q290E-S322T-N388M-K394R-i426aL-C430A-L432F-L434W-S436N-dG462 (protein)
chain: B1 chain
With B7 the “Activity relative to WT” value was “++++”.

B8: I283T-N285P-N287T-Q290E-S322T-N388M-K394R-C430A-i430aR-L432F-L434W-S436N-dG462 (protein)
chain: B1 chain
With B8 the “Activity relative to WT” value was “++++”.

B9: I283T-N285P-N287T-Q290E-S322T-N388M-K394R-C430A-i430aG-L432F-L434W-S436N-dG462 (protein)
chain: B1 chain
In the case of B9, the “Activity relative to WT” value is reported as “++++”.

B10: N388M-K394R-S429D-C430N-L432F-L434W-S436N (protein)
chain: B1 chain with T283I, P285N, T287N, E290Q, T322S, S429D, A430N
With B10 the “Activity relative to WT” value was “+”.

B11: I283T-N285P-N287T-Q290E-S322T-N388M-K394R-C430A-i430aC-L432F-L434W-S436N-dG462 (protein)
chain: B1 chain
With B11 the “Activity relative to WT” value was “++++”.

B12: I283T-N285P-N287T-Q290E-S322T-N388M-K394R-i429aN-C430A-L432F-L434W-S436N-dG462 (protein)
chain: B1 chain
For B12, the “Activity relative to WT” value was “++++”.
